In patent US20220143148A1, “COMPOSITIONS AND METHODS FOR MODULATING CGRP SIGNALING TO REGULATE INTESTINAL INNATE LYMPHOID CELLS” (The Broad Institute, Inc., priority 2019, published 2022):

Tested on: small intestinal immune cells
Test: Droplet-based scRNA-seq of small intestinal immune cells (LP and PP), OVA vs PBS, clustering and differential expression
Assay type: in vivo, mouse
Conditions: cluster ID 6, PP
Excerpt: To comprehensively characterize small intestinal immune cells, Applicants generated scRNA-Seq profiles for 58,067 immune cells collected from lamina propria (LP) and Peyer's patch (PP) regions at steady state and after induction of a type 2 inflammatory reaction to ovalbumin (OVA) (Brandt et al., 2003) (FIGS. 1A and 8A). To ensure sufficient representation of rare cells, Applicants combined a normalization strategy—removing by flow sorting either a portion of IgD+ naïve B cells, which are the most abundant cell type in PPs, or all CD19+ and CD3+ T cells (FIG. 8B, Methods)—with profiling of a sufficiently large number of cells number (P>0.99 to recover at least 15 cells from each cluster, Methods) by massively parallel scRNA-seq (Haber et al., 2017) (Methods). Applicants obtained 36,797 and 21,270 high quality cells passing initial filtering (Methods) from PP and LP regions, respectively.
Overall, Applicants annotated 27 cell subsets across the two compartments, spanning T cells, B cells, ILCs, dendritic cells (DCs), myeloid cells and stromal cells, in frequencies ranging from 0.07% to 14%. Briefly, Applicants first partitioned the cells from the PP regions by unsupervised clustering (Methods) into 46 clusters, retained the 97% of cells that were robustly assigned cell identities in each cluster (Methods), assigned the cells from the LP regions to the 46 clusters using a classifier (Methods), and visualized the data with scvis (Ding et al., 2018), a deep generative model-based method (FIGS. 1B and 8C, Methods). Next, Applicants identified genes that were differentially expressed between the cells in each cluster and the remaining cells (Table 1, Methods), as well as between pairs of clusters (Table 2), to elucidate identities of similar cell types/states. Applicants excluded from downstream analysis clusters mostly consisting of contaminants from epithelium, likely doublets, or cells with a small number of Unique Molecular Identifiers (UMIs) (FIGS. 1C and 8D), or lacking distinct markers (Methods). Altogether, Applicants retained 27 clusters spanning 85% of the cells and each associated with distinct marker genes (FIG. 8E, Methods).
To induce allergic reaction to OVA, 6 to 7 weeks old mice were sensitized twice, two weeks apart, with 50 μg of OVA plus 1 mg of aluminum potassium sulfate adjuvant via intraperitoneal injection. Two weeks later, mice were orally administered with 50 mg of OVA on every other day for a total of five times. 1 μg of α-CGRP peptide was administered simultaneously when indicated. Mice were deprived of food for 3-4 hours in cages with wood chip bedding for limiting antigen degradation in the stomach before each intragastric challenge.
Isolation of cells from Peyer's patches (PPs). Peyer's patches (PPs) were carefully dissected from the small intestine under a stereo microscope using a fine scissor, pierced once with a fine forcep. Tissues were digested in freshly made digestion buffer (RPMI-1640 containing 100 μg/ml Liberase™ and 50 μg/ml DNase I at 37° C. on a roto-mixer. After 15 min, tissues were very gently mixed using a 1 ml pipette. The supernatant was collected and added to ice-cold MACS buffer (pH 7.4; PBS plus 2% FCS and 2 mM EDTA). Pre-warmed (37° C.) fresh digestion buffer was added to the remaining tissues. After rotation at 37° C. for 15 min, the mixture was vigorously mixed using a 1 ml pipette for 1 min. Supernatants from the two steps were combined and passed through 70 μm filters and stained for FACS (below).
Isolation of cells from the lamina propria (LP). The small intestines were opened longitudinally and washed in ice-cold PBS. For scRNA-seq, roughly 0.5 cm of fragments from each of the distal, middle and proximal regions without visible PPs were collected. Epithelial cells were dissociated by tissue rotation in pre-warmed (37° C.) PBS containing 10 mM EDTA at 37° C. for 15 min, followed by additional incubation on ice for 15 min. Tissues were then shaken vigorously. […]

B1: OVA (protein, UniProt P01012 2-386, looked up)
Ovalbumin: GSIGAASMEFCFDVFKELKVHHANENIFYCPIAIMSALAMVYLGAKDSTRTQINKVVRFDKLPGFGDSIEAQCGTSVNVHSSLRDILNQITKPNDVYSFSLASRLYAEERYPILPEYLQCVKELYRGGLEPINFQTAADQARELINSWVESQTNGIIRNVLQPSSVDSQTAMVLVNAIVFKGLWEKAFKDEDTQAMPFRVTEQESKPVQMMYQIGLFRVASMASEKMKILELPFASGTMSMLVLLPDEVSGLEQLESIINFEKLTEWTSSNVMEERKIKVYLPRMKMEEKYNLTSVLMAMGITDVFSSSANLSGISSAESLKISQAVHAAHAEINEAGREVVGSAEAGVDAASVSEEFRADHPFLFCIKHIATNAVLFFGRCVSP
Mcpt1: percentage of expressing cells in OVA-treated group: 0.35 | Mcpt2: percentage of expressing cells in OVA-treated group: 0.212 | Mir142hg: percentage of expressing cells in OVA-treated group: 0.169 | Mpeg1: percentage of expressing cells in OVA-treated group: 0.992 | Napsa: percentage of expressing cells in OVA-treated group: 0.888 | Neat1: percentage of expressing cells in OVA-treated group: 0.885 | Nfkbia: percentage of expressing cells in OVA-treated group: 0.661 | Nfkbiz: percentage of expressing cells in OVA-treated group: 0.336 | Npc2: percentage of expressing cells in OVA-treated group: 0.985 | Nr4a1: percentage of expressing cells in OVA-treated group: 0.508 | Nr4a3: percentage of expressing cells in OVA-treated group: 0.134 | Odc1: percentage of expressing cells in OVA-treated group: 0.366 | Os9: percentage of expressing cells in OVA-treated group: 0.441 | Pik3ip1: percentage of expressing cells in OVA-treated group: 0.423 | Pim1: percentage of expressing cells in OVA-treated group: 0.509 | Plek: percentage of expressing cells in OVA-treated group: 0.617 | Plekho2: percentage of expressing cells in OVA-treated group: 0.201 | Pltp: percentage of expressing cells in OVA-treated group: 0.878 | Pnrc1: percentage of expressing cells in OVA-treated group: 0.706 | Ppia: percentage of expressing cells in OVA-treated group: 0.998 | Ppp1r16b: percentage of expressing cells in OVA-treated group: 0.237 | Ppp2ca: percentage of expressing cells in OVA-treated group: 0.539 | Psap: percentage of expressing cells in OVA-treated group: 0.997 | Ptp4a1: percentage of expressing cells in OVA-treated group: 0.4 | Ptpre: percentage of expressing cells in OVA-treated group: 0.392 | Rel: percentage of expressing cells in OVA-treated group: 0.381 | Rgs1: percentage of expressing cells in OVA-treated group: 0.466 | Rilpl2: percentage of expressing cells in OVA-treated group: 0.851 | Rnase6: percentage of expressing cells in OVA-treated group: 0.991 | Rnf19b: percentage of expressing cells in OVA-treated group: 0.255 | Rpn2: percentage of expressing cells in OVA-treated group: 0.664 | Runx3: percentage of expressing cells in OVA-treated group: 0.53 | S1pr4: percentage of expressing cells in OVA-treated group: 0.351 | Sell: percentage of expressing cells in OVA-treated group: 0.983 | Selplg: percentage of expressing cells in OVA-treated group: 0.992 | Sf3b1: percentage of expressing cells in OVA-treated group: 0.706 | Siah2: percentage of expressing cells in OVA-treated group: 0.253 | Skil: percentage of expressing cells in OVA-treated group: 0.435 | Sla2: percentage of expressing cells in OVA-treated group: 0.735 | Smc6: percentage of expressing cells in OVA-treated group: 0.849 | Socs3: percentage of expressing cells in OVA-treated group: 0.55 | Spsb2: percentage of expressing cells in OVA-treated group: 0.187 | Tgif1: percentage of expressing cells in OVA-treated group: 0.115 | Tnfaip8l2: percentage of expressing cells in OVA-treated group: 0.512 | Traf4: percentage of expressing cells in OVA-treated group: 0.535 | Trim25: percentage of expressing cells in OVA-treated group: 0.339 | VgIl4: percentage of expressing cells in OVA-treated group: 0.34 | Vps37b: percentage of expressing cells in OVA-treated group: 0.424 | Wnk1: percentage of expressing cells in OVA-treated group: 0.605 | Zc3h12a: percentage of expressing cells in OVA-treated group: 0.135 | Zfand5: percentage of expressing cells in OVA-treated group: 0.423 | Zfp36l2: percentage of expressing cells in OVA-treated group: 0.783 | AY036118: LN (average fold change) (OVA vs PBS): −0.256 | Atf3: LN (average fold change) (OVA vs PBS): −0.693 | Atp5h: LN (average fold change) (OVA vs PBS): 0.168 | B3gnt8: LN (average fold change) (OVA vs PBS): 0.265 | Bcl2l11: LN (average fold change) (OVA vs PBS): −0.499 | Bhlhe40: LN (average fold change) (OVA vs PBS): −0.297 | Bloc1s2: LN (average fold change) (OVA vs PBS): 0.218 | Btg2: LN (average fold change) (OVA vs PBS): −0.156 | Ccl4: LN (average fold change) (OVA vs PBS): 0.241 | Cd68: LN (average fold change) (OVA vs PBS): 0.204 | Cd83: LN (average fold change) (OVA vs PBS): −0.472 | Cdv3: LN (average fold change) (OVA vs PBS): −0.219 | Clcn3: LN (average fold change) (OVA vs PBS): −0.239 | Clec10a: LN (average fold change) (OVA vs PBS): 0.327 | Clec2d: LN (average fold change) (OVA vs PBS): 0.409 | Coq10b: LN (average fold change) (OVA vs PBS): −0.336 | Crem: LN (average fold change) (OVA vs PBS): −0.279 | Cxcr3: LN (average fold change) (OVA vs PBS): 0.302 | Cxcr4: LN (average fold change) (OVA vs PBS): 0.491 | D13Ertd608e: LN (average fold change) (OVA vs PBS): 0.276 | Ddit4: LN (average fold change) (OVA vs PBS): 1.322 | Ddx3x: LN (average fold change) (OVA vs PBS): −0.202 | Defa24: LN (average fold change) (OVA vs PBS): −1.145
